Legend:
[1] = Terpene synthase activity assay with GPP; type: biochemical; details: TPS expressed in E. coli; 10 μM GPP, overnight at 30° C., SPME GC-MS
Protocol: Putative terpene synthase genes were synthesized by the TWIST Co., and cloned into Novagen pET-28a(+) with a 6×His tag at its' N-terminus. The recombinant plasmid was then sequenced for authentication and transformed into BL21(DE3) pLysS and pLysE strains of E. coli (Agilent Technologies) for heterologous expression. An overnight culture was used to inoculate a 20-200 mL culture, induced with 0.1 mM IPTG at an OD 600 nm >0,8 for initiation of recombinant protein translation then incubated at 18° C. and 250 RPM overnight. The cells were collected by centrifugation and the recombinant enzymes were extracted either as a crude extract or purified on a Ni-NTA agarose resin as previously described [Gonda I. et al., The Plant Journal (2013) 61, 458-472].
To determine the terpene synthase catalytic activity, reaction mixtures containing 100 μl of protein extract or purified protein were incubated overnight at 30° C. with either 10 μM geranyl diphosphate (GPP) or farnesyl diphosphate (FPP), in a final volume of 200 μl using a buffer containing 50 mM bis-tris, pH 6.9, 1 mM DTT, 10% (v/v) glycerol, 0.1 mM of MnCl2 and 10 mM of MgCl2. The volatiles produced were extracted by solid-phase microextraction (SPME) according to the methodology previously described [Iijima Y. et al., Plant Physiol (2004) 136: 3724-3736]. As controls, reactions were carried out without the cofactors MnCl2 and MgCl2, or protein extracts were heat inactivated by incubation at 100° C. for 5 minutes, or a short peptide product of an empty pET100 vector was utilized.
For solid-phase microextraction (SPME) analysis, a 57298-U SPME fiber assembly Divinylbenzene/Carboxen/Polydimethylsiloxane (DVB/CAR/PDMS, Supelco) needle size 23 ga, StableFlex, was used with an autosampler and analyzed by GC-MS as previously described [Davidovich-Rikanati R. et al., Nature Biotech (2007) 25:899-901; Davidovich-Rikanati R. et al., Plant J (2008) 56:228-238]. The SPME fiber were adsorbed for 30 min. by automatic HS-SPME at 50° C. followed by injection of the fiber into a GC-MS injection port for 5 min. (splitless), for desorption of the volatiles. Chiral separation was conducted on a Restek Rt™-bDEXsm column (30 m length 0.25 mm i.d., 0.25 μm film thickness, 2,3-di-O-methyl-6-O-tert-butyl dimethylsilyl beta cyclodextrin added into 14% cyanopropylphenyl/86% dimethyl polysiloxane). Helium (0.8 ml min-1) was used as a carrier gas with splitless injection. The injector temperature was 250° C., and the detector temperature was 230° C. The following conditions were used: initial temperature 40° C. for 5 min., followed by a ramp of 2° C./min. to 110° C., and 10° C./min up to 230° C. (5 min.). A quadrupole mass detector with electron ionization at 70 eV was used to acquire the MS data in the range of 41 to 350 m/z. The identification of the volatiles was assigned by comparison spectral data with the W10N11 and HPCH2205 GC-MS libraries and with authentic standard when available.

yeast cells [2] = experiment: Yeast growth (turbidity A600) in the presence of CBD; type: cell-based, Saccharomyces cerevisiae (strain Y1HGold); details: 0.5 mM CBD, 7-12 hours, FIG. 2
Protocol: (§1) The genes were expressed in yeast and tobacco. For yeast, the ABC and PTR Transporter genes were synthesized by the TWIST Co, cloned and expressed (individually) in the yeast expression vector pESC-URA (Agilent Technologies) for expression under the yeast native gal-10 promoter. Competent Saccharomyces cerevisiae (strain Y1HGold, CloneTech) cells were prepared, transformed by each of the resulting vector and selected on yeast synthetic media lacking Uracil as previously described [GietzR. D., Methods Mol. Biol. (2014) 1205:1-12].
An alternative method is to measure the yeast growth as a function of turbidity. Transformed yeast cells were grown on URA-glucose broth at 30° C. at 200 RPM, and after 24 hours 100 μl was used to inoculate 5 ml of URA-galactose broth in the same conditions till O.D.600 of 1.5. The yeast was further diluted to OD600=0.05 with 10 ml URA-galactose, and divided into two 5 ml aliquots into separate 50 ml falcon tubes. The first falcon (control) was added 78 μl acetonitrile (the solvent that the CBD was dissolved in), and the second one was added 78 μl CBD solution in acetonitrile (final CBD concentration=0.5 mM). […]

yeast cells [3] = experiment: Uptake of CBD into yeast cells; type: cell-based, Saccharomyces cerevisiae (strain Y1HGold); details: 0.5 mM CBD, three hour incubation, FIG. 3A and FIG. 4
Protocol: as §1
An additional strategy for determining transporter function is to measure the amount of exogenous CBD taken up and incorporated into the cells.
Transformed yeast cells were grown on URA-glucose broth at 30° C. at 200 RPM, and after 24 hours 100 μl was used to inoculate 5 ml of URA-galactose broth in the same conditions till OD600 of […]. The yeast was incubated with 0.5 mM CBD for 2-8 hours in 30° C. at 100 RPM, then centrifuged at 15000 g for 1 minute, and washed twice with 1 ml distilled water. The pellet was weighed and underwent HPLC analysis to determine the pellet's CBD content. The pellet was extracted in 1 ml methanol, and following centrifugation and filter was analyzed by HPLC using a diode-array detector and CBD was quantified against a commercial standard.

Molecule | Monoterpenes produced with GPP [1] | inhibition of yeast growth in response to CBD, transporter-expressing yeast vs control yeast (yeast cells [2]) | net uptake of CBD into yeast cells compared to control (empty vector) yeast (yeast cells [3])
AG3403-2: Cannabis terpene synthase gene product, amino acid SEQ ID NO: 40 (protein, Terpene Synthase Gene Amino acid sequence of the 45 identified gene products) MHCITLKHQISPLLPNICSTTNFGVFFRPKLYTNYNIINNATKSRLSSACYPIQCAVVNSSNAIIDRRSANFEPSIWSFDYIQSLTSQYKGEPYTSRVKKLERDVKKILVEMENSLAQLELIDTLQRLGISYRFENEINSILNKKYVNINNPNYNLYAIALQFRLLRQHGYAVPQEIFNQLKDEIENIKKNINGNDIMGILALYEASFYEKKGESILKEARIFTTKCLKNYTIMISEQKKLLIDNDYDYDIEVVNHALELPLHRRTTRTEAKWFIDAYAKKQDMNPMLLELAKLNFNTVQSTHHEDLKHIFRWWRHTKLGEKLNFARDRLMECFLWNIGIRFESKFSYFRTKTAKLFELVTFIDDIYDVYGTLDELELFTKAVERWDVKMINELPEYMKMPYLVLHNTINDMVFEVLRDQEISINIQYLKKTWVDMCKSFLQEAKWYYSGYTPTLEEYIENGWISVGAPVILVHAYFFHANNNRTITNTKEIFECLEHGYYPAIIRHSAIILRFTNDLTTSSEELKRGDAPTSIQCYMQEKNVSEEEAREHIKFLINEAWKEMNNDVGLYPISLTEDATNFAKMGFFIYQHGDGHSSQDNQSKQKISSLIIEPIPLYT | beta-myrcene and geraniol | – | –
799-4: Cannabis terpene synthase gene product, amino acid SEQ ID NO: 33 (protein, Terpene Synthase Gene Amino acid sequence of the 45 identified gene products) MSNIQVLASSQLSDKIIARPTTNFHPSIWGDRFLHYNISEQDLVCKEERIEELIQVVKKEILSSNHDQLKLIDNLQRLGLSHHFESEIEKLLEHLSTTHHQNHHDLHDASLCFRLLRQHGFNVSSSIFEKFKDEKGNFKGSLITDVPGLLSLYEASHLSYVGESILDEALAFTTTHLKAIVANSKDHPLSHQISIALHRPLRKTIERLHARFYISIYEKDASHNKVLLELAKLDFNLLQCFHKKELSEIMRWWKEHEFAKKFPFARDRMVEQYFWILGVYYEPKYSRARKLLTKVIALASITDDIYDAYGTIDELELLTKAMQRWDITCMDKLEPEYLKTYYKAMLDSYEEFEKELKKEELYKLEYAKEEMKRIIGAYFEEARWLSEGYFPSLDEHLKVSYVSCGYVLLIATSYVGMYDIVTHETLNWLSKDPKIVSASTLLARFMDDIGSRKFEQKRNHIPSTVDCYMKQYEVSEEEAIKELNKRVDTHWKEINEDFIRPTVVPFPILVRVLNFTKTVDLLYKEGDDQYTNVGKVLKESIAALLIDSIPL | myrcene | – | –
T-AG2575-1: Cannabis ABC-G transporter gene product, amino acid SEQ ID NO: 55 (protein, ABC+PTR Transporter amino acid sequence (of the 12 identified gene products)) MEVGDLYKAGNSLRSSKGSSVWRGNNNNNNNKDEFFSKSRREDDIDDEEALTWAALEKLPTYDRLRKGILTTSKGKPTEVDVINLGSKERKDLLRRLVNVADEDNESFLLKLKQRIQTVGIELPTIEVRYENIKVEADVHVGSRALPSFINFCVNILEMLVSFLPILKSKKKHVTILDDVSGAIKPGRLTLLLGPPNSGKTTLLLTLAGKLASELKFSGRVTYNGHEMNEFIPQRTAAYISQHDVHIGEMTVRETLSFSARCQGVGTRYDMLAELSRREKEANITPDPDIDVFMKAASAEGQESSVITDYIIKILGLEGCADTMVGNEMLRGISGGQKKRVTTGEMLVGPAGALFMDEISTGLDSSTTFQIVNSLKQFAHIFEETIVISLLQPAPETYDLFDDIILLSDGQIVYQGPRENVLEFFELTGFKCPERKAIADFLQEVTSRKDQAQYWARSDQPYKFVTVNEFVEAFQSFHIGKKVVEHLSIPFDKTKSHPAALTTKPYGLNKMELLKACMSREFLLMKRNSFVHIFKIVQLGILGLISATIFLRTKMHHKTLQDGSIYLGALFFSTLMIMFNGLSEVPMTIVKLPVFYKQRDLQFFPAWAYALPSMIYKAPVAFIEVLVWMTITYYSIGFDPYFGRVVKLYVLFVIINQMASGLFRAIASIGRSMIIANTFGAFSLLLLFVLGGFVLSRDFIKGWWIWGYWISPLMYGQTGVVVNEFNGNKWKHVPPNSTETLGVQVLKARGFFTDSYWYWLGFAALSAYVVIFNFVYTLALTYLNPLEQRQAVSNENSESGDIQNDEEGEVIEMTQRPKNMGENQSKKKGMILPFEPHSICFDDVCYSVDMPQEMKGQGVVEDKLVLLKSVSGSFRPGVLTALMGVSGAGKTTLMDVLAGRKTGGYIEGDIRISGYPKKQETFARISGYCEQNDIHSPYVTVYESLLYSAWLRLPSEVDMDTRKMFIEEVMELVELVPLRQALVGLPGVNGLSTEQRKRLTIAVELVANPSIIFMDEPTSGLDARAAAIVMRTVRNTVDTGRTVVCTIHQPSIDIFEAFDELFLLKIGGEEIYVGPLGRHSCHLINYFEAIEGVSKIKEGYNPGTWMLEVSSSAQEMALGVDFANIYKNSDLYKRNKELIKELSTPAPGSKDLYFPTQFSRSLYTQCIACLWKQRQSYWRNPLYTAVRFMFTTFIALMFGTMFWDLGSKRSNKQDLTNALGSMYSAVLFIGVQNSSSVQPVVGVERTVFYREKAAGMFSAFPYTFGQVVVEIPYIICQAVVYCLIVYAMMGFEWTAVKFFWYLFFTFFSMLYFTFYGMMAVGITPNNHVASIISAAFYSIWNLFSGFIVPRTRIPIWWRWYYWGCPTAWTLYGLLVSQYGDVEDVMDAETGETVKQYLKSYFGYKHDFIGVVAMVNVFYGLLFGGIFALSIKVLNFQNR | – | reduced inhibition of growth | reduced net uptake of CBD
